Measured values taken from patent US11441131B2, “Heparosan synthases and use thereof for saccharide synthesis” (The Regents of the University of California, priority 2019, dated 2022).
Residue numbers refer to the chain shown, from its start. Numbers in names are those of the source. Where two headings read alike, the source gives them in different places.

B1: D222N (protein)
chain: MGSSHHHHHHSFEKIYTYNQALEAKLEKDKQTTSITDLYNEVAKSDLGLVKETNSANPLVSIIMTSHNTAQFIEASINSLLLQTYKNIEIIIVDDDSSDNTFEIASRIANTTSKVRVFRLNSNLGTYFAKNTGILKSKGDIIFFQDSDDVCHHERIERCVNILLANKETIAVRCAYSRLAPETQHIIKVNNMDYRLGFITLGMHRKVFQEIGFFNCTTKGSNDEFFHRIAKYYGKEKIKNLLLPLYYNTMRENSLFTDMVEWIDNHNIIQKMSDTRQHYATLFQAMHNETASHDFKNLFQFPRIYDALPVPQEMSKLSNPKIPVYINICSIPSRIAQLQRIIGILKNQCDHFHIYLDGYVEIPDFIKNLGNKATVVHCKDKDNSIRDNGKFILLEELIEKNQDGYYITCDDDIIYPSDYINTMIKKLNEYDDKAVIGLHGILFPSRMTKYFSADRLVYSFYKPLEKDKAVNVLGTGTVSFRVSLFNQFSLSDFTHSGMADIYFSLLCKKNNILQICISRPANWLTEDNRDSETLYHQYRDNDEQQTQLIMENGPWGYSSIYPLVKNHPKFTDLIPCLPFYFL
B2: L196A (protein)
chain: B1 chain with L196A, N222D
B3: I199A (protein)
chain: B1 chain with I199A, N222D
B4: D500N (protein)
chain: B1 chain with N222D, D500N
B5: Y176A (protein)
chain: B1 chain with Y176A, N222D
B6: R195A (protein)
chain: B1 chain with R195A, N222D
B7: T200A (protein)
chain: B1 chain with T200A, N222D
B8: T475A (protein)
chain: B1 chain with N222D, T475A
B9: T477A (protein)
chain: B1 chain with N222D, T477A

Tests used:
[1] = tested on: His6-PmHS2; experiment: Donor substrate specificity of GlcNAcT activity (HPLC), His6-PmHS2; assay type: biochemical, Pasteurella multocida; details: acceptor GlcAβ2AA
From the text: (§1) Donor substrate specificity assays. […] Chromatographic separation and detection were achieved similarly to that described above for kinetics studies.

[2] = tested on: His6-Δ80PmHS2; experiment: Donor substrate specificity of GlcNAcT activity (HPLC), His6-Δ80PmHS2; assay type: biochemical, Pasteurella multocida; details: acceptor GlcAβ2AA
From the text: as §1

[3] = α1-4-GlcNAcT activity comparison of His6-Δ80PmHS2 and its D222N and D500N mutants; assay type: biochemical
Procedure: Reactions were stopped by heating reaction mixture at 70° C. for 10 min, followed by incubation on ice for 30 min and centrifugation at 11,337 g for 15 min. Supernatants were analyzed similarly to that described above for […].

[4] = β1-4-GlcAT activity comparison of His6-Δ80PmHS2 and its D222N and D500N mutants; assay type: biochemical
Procedure: Reactions were stopped by heating reaction mixtures at 70° C. for 10 min, followed by incubation on ice for 30 min and centrifugation at 11,337 g for 15 min. Supernatants were analyzed similarly to that described above for the coupled-enzyme reverse glycosylation assay.

[5] = Reverse glycosylation assay mimicking synthetic conditions; assay type: biochemical; details: 30 mM UDP, conditions mimicking synthetic reactions
Procedure: Reactions were stopped by heating reaction mixtures at 70° C. for 10 min, followed by incubation on ice for 30 min and centrifugation at 11,337 g for 15 min. Supernatants were analyzed similarly to that described above for time-course reverse glycosylation assays.

[6] = Protein expression and purification; parameters: species or system E. coli BL21 (DE3); details: per L culture
Procedure: Protein expression and purification. The plasmid-bearing E. coli BL21(DE3) cells were cultured in 1 L of LB-rich media (10 g/L tryptone, 5 g/L yeast extract and 10 g/L NaCl) supplemented with ampicillin (100 μg/mL). Expression of the target protein was achieved by inducing the E. coli culture with 0.1 mM of isopropyl-1-thio-β-D-galactopyranoside (IPTG) when OD600 nm reached 0.8-1.0, followed by incubating at 20° C. for 20 h with shaking at 250 rpm in a C25KC incubator shaker (New Brunswick Scientific, Edison, N.J.). Histidine-tagged target proteins were purified from cell lysate. To obtain the cell lysate, cell pellet harvested by centrifugation at 2,795 g for 50 min was resuspended (25 mL/L cell culture) in lysis buffer (Tris-HCl, 100 mM, pH 8.0 with 0.1% Triton X-100). Sonication protocol was 2 s (sonication)/3 s (rest) for a total of 6 min on ice. Lysed cells were centrifuged at 5,000 g for 50 min and the supernatant (lysate) was collected. Purification of histidine-tagged proteins from the lysate was achieved using a Ni′-resin column. The column was pre-equilibrated with 10 column volumes of binding buffer (5 mM imidazole, 0.5 M NaCl, 50 mM Tris-HCl, pH 7.5). The lysate was then loaded, and the column was washed with 10 column volumes of binding buffer and 10 column volumes of washing buffer (16 mM imidazole, 0.5 M NaCl, 50 mM Tris-HCl, pH 7.5). The target protein was eluted with Tris-HCl buffer (50 mM, pH 7.5) containing imidazole (200 mM) and NaCl (0.5 M). The fractions containing the purified enzymes were collected, and stored at 4° C.

[7] = β1-4GlcA-transferase activity of designed mutants; assay type: biochemical
[8] = α1-4GlcNAc-transferase activity of designed mutants; assay type: biochemical

Row | Molecule | suitability as donor substrate [1] | suitability as donor substrate [2] | β1-4GlcA-transferase activity [7] | further results
1 | O=c1ccn([C@@H]2O[C@H](COP(=O)(O)OP(=O)(O)O[C@H]3O[C@H](CO)[C@@H](O)[C@H](O)[C@H]3NS(=O)(=O)O)[C@@H](O)[C@H]2O)c(=O)[nH]1 [UDP-GlcNS] | not suitable donor substrates | not suitable donor substrates | – | –
2 | O=C(N[C@H]1[C@@H](OP(=O)(O)OP(=O)(O)OC[C@H]2O[C@@H](n3ccc(=O)[nH]c3=O)[C@H](O)[C@@H]2O)O[C@H](CO)[C@@H](O)[C@@H]1O)C(F)(F)F [UDP-GlcNTFA] | suitable donor substrates | suitable donor substrates | – | –
3 | CC(=O)NC1C(OP(=O)(O)OP(=O)(O)OCC2OC(n3ccc(=O)[nH]c3=O)C(O)C2O)OC(COS(=O)(=O)O)C(O)C1O (stereo not drawn) [UDP-GlcNAc6S] | not suitable donor substrates | not suitable donor substrates | – | –
4 | [N-]=[N+]=NCC(=O)N[C@H]1[C@@H](OP(=O)(O)OP(=O)(O)OC[C@H]2O[C@@H](n3ccc(=O)[nH]c3=O)[C@H](O)[C@@H]2O)O[C@H](CO)[C@@H](O)[C@@H]1O [UDP-GlcNAz] | suitable donor substrates | suitable donor substrates | – | –
5 | UDP-GlcNAc6NAcPh | not suitable donor substrates | not suitable donor substrates | – | –
6 | [N-]=[N+]=NC1C(OP(=O)(O)OP(=O)(O)OCC2OC(n3ccc(=O)[nH]c3=O)C(O)C2O)OC(CO)C(O)C1O (stereo not drawn) [UDP-GlcN3] | not suitable donor substrates | not suitable donor substrates | – | –
7 | CC(=O)NC1C(OP(=O)(O)OP(=O)(O)OCC2OC(n3ccc(=O)[nH]c3=O)C(O)C2O)OC(CN=[N+]=[N-])C(O)C1O (stereo not drawn) [UDP-GlcNAc6N3] | suitable donor substrates | suitable donor substrates | – | –
8 | B1 | – | – | – | α1-4-GlcNAcT activity relative to His6-Δ80PmHS2 [3]: retained; β1-4-GlcAT activity relative to His6-Δ80PmHS2 [4]: lost; β1-4-GlcAT activity relative to His6-Δ80PmHS2 ([4]; listed as D291N): completely removed; reverse glycosylation oligosaccharide products [5]: no reverse glycosylation oligosaccharide products were observed; expression level [6]: 50 to 60 mg/L
9 | B2 | – | – | retained | –
10 | B3 | – | – | retained | –
11 | B4 | – | – | – | decrease of α1-4-GlcNAcT activity relative to His6-Δ80PmHS2 [3]: 548 fold; β1-4-GlcAT activity relative to His6-Δ80PmHS2 [4]: retained; reverse glycosylation oligosaccharide products [5]: no reverse glycosylation oligosaccharide products were observed; expression level [6]: 60 to 70 mg/L
12 | B5 | – | – | retained | –
13 | B6 | – | – | retained | –
14 | B7 | – | – | retained | –
15 | B8 | – | – | – | α1-4GlcNAc-transferase activity [8]: retained
16 | B9 | – | – | – | α1-4GlcNAc-transferase activity [8]: retained
